Experimental findings from patent US20220112288A1 (published 2022) are described below.

Residue numbers refer to the chain shown, from its start. A value given as a limit tells only on which side of the number the result lay.

B1: 75110_08F20A (antibody, V domains shown)
VH: QVQLQESGPGLVKPSETLSLTCSVSGGSISTYYWSWIRQPAGKGLEWIGRICTTENTNYNPSLKSRVTMSIDSSKNQFSLKLSSVTAADTAVYYCARDLERLNYYGMDVWGQGATVTVSS
VL: DIQMTQSPSSLSASVGDRVTITCQASQDISKYLNWYQQKPGIAPKLLIYDASNLETGVPSRFSGSGSGTDFTFTISSLQPEDFATYYCQQYDSLPITFGQGTRLEIK
notes: Tested as antibody purified from AlivaMab Mouse hybridoma supernatant (human variable domains, kappa; mouse Fc, captured on anti-mouse IgG Fc sensors); also called ADS75110 purified AMM Ab
B2: 75110_14N19A (antibody, V domains shown)
VH: B1 VH with S23T, T31R, T54S, T57P, S62A, I71V, S73T, D98E, A114T
VL: B1 VL with S7F, K31N, I42K, T56S, S65R, Y86F, S93T
notes: as for B1
B3: 75110_08G08A (antibody, V domains shown)
VH: B1 VH
VL: B1 VL with K31N, F83I
notes: as for B1
B4: 75110_09G15A (antibody, V domains shown)
VH: EVQLVESGGGLVQPGGSLRLSCAASGFTFSDYWMSWVRQAPGKGLEWVANINQDGSEKYSVDSVKGRFTISRDNAKNSLYLQMNSLRAEDTAIFYCAREGGQWLALDYWGQGTLVTVSS
VL: DIQMTQSPSSVSASVGDRVTITCRASQGISSWLAWYQQKPGKAPKLLIYGASSLQSGVPSRFSGSGSGTDFTLTINSLQPEDFTTYYCQQANIFPWTFGQGTKVEIK
notes: as for B1
B5: 75110_12H17A (antibody, V domains shown)
VH: B4 VH with N52K, Q53E, S56N, S60Y, Y80F, I93V, F94Y, T113A
VL: B4 VL with L46F, Y49S, S63T, N76S, T84A, I93S
notes: as for B1
B6: 75110_09N20A (antibody, V domains shown)
VH: B4 VH with D31S, Q53E, S60Y, I93V, F94Y, A97V
VL: B4 VL with G50A, R61S, T84A, I93S, E105A
notes: as for B1
B7: 75110_07H07A (antibody, V domains shown)
VH: B4 VH with L4V, D31S, N52K, Q53E, D54E, S60Y, I93V, F94Y, A97V
VL: B4 VL with A13G, Y49F, N76S, T84A, I93S, E105Q
notes: as for B1
B8: 75110_12H19A (antibody, V domains shown)
VH: EVQLVESGGGLVQPGGSLRLSCAASGFTFSSYWMSWVRQAPGQGLEWVANINEDGNEKYHVDSVKGRLTISRDNAKNSLYLQMNSLRGVDTAVYFCAREGGQWLALDYWGQGALVTVSS
VL: B4 VL with T20S, S53G, N76S, T84A, I93S
notes: as for B1
B9: 75110_12C19A (antibody, V domains shown)
VH: B4 VH with D31S, N52K, Q53E, E57D, S60Y, I93V, F94H, A97V
VL: B4 VL with A13G, N76S, T84V, I93S
notes: as for B1
B10: 75110_14I16A (antibody, V domains shown)
VH: QVQLQESGPGLVKPSETLSLTCTVSNGSISSYYWSWIRQSAGKGLEWIGRIYTSGSTNYNPSLKSRVTMLVDTSKNQFSLKLSSVTAADTAVYYCARDREDYYYYGMDVWGQGTTVTVSS
VL: DIQMTQSPSSLSASVGDRVTITCQASHDISNYLNWYQQKPGKAPKLLLYYASNLETGVPSRFSGSGSGTDFTFTITSLQPEDIGTYSCQQYDNLPLTFGGGTKVEIK
notes: as for B1
B11: 75110_07N04A (antibody, V domains shown)
VH: QVQLQESGPGLVKPSETLSLTCSVSGVSSTSFYWSWIRQPAGKGLDWIGRIYTSGSTNYNPSLKSRVTMSVDTSKNQFSLKLSSVTAADTAVYYCARDPGYSDAFAIWGQGTMVTVSS
VL: not shown
notes: as for B1
B12: 75110_07J02A (antibody, V domains shown)
VH: EVQLVESGGGLVQPGGSLRLSCAASGFTFSSYWMSWVRQAPGKGLEWVANIKEDGSEKYYVDSVKGRFTISRDNAKNSLYLQMNSLRAEDTAVYYCARDGSYSGYGMDVWGQGTTVTVSS
VL: AIQMTQSPSSLSASVGDRVTITCRASQGIRNDLGWYQQKPGKAPKLLIYAASSLQSGVPSRFSGRGSGTDFALTISSLQPEDFATYYCLLDYNYPYTFGQGTRLEIK
notes: as for B1
B13: 75110_08A13A (antibody, V domains shown)
VH: B12 VH with T28I, E53Q, V61M, G100N, S103Y, G104Y
VL: B12 VL with N31D, Y49F, R61S, R65S, A72T, L90H, D91H, R103K
notes: as for B1
B14: 75110_10K21A (antibody, V domains shown)
VH: EVQLVESGGGLVQPGGSLRLSCAASGFTFSSYWMTWVRQAPGKGLEWVANIKQDGSEKYYVDSVKGRFTISRDNAKNSLYLQMNSLRAEDTAVYYCVRDRYDALDIWGQGTMVTVSS
VL: B12 VL with G34N, R65S, A72T, P80A, L90K, R103K
notes: as for B1
B15: 75110_13P21A (antibody, V domains shown)
VH: QVQLQQWGAGLLKPSETLSLTCAVSGGSFSGYYWSWIRQPPGKGLEWIGEINHSGSTNCNPSLKSRVTISVDTSNNQFSLKLSSVTAADTAVYYCARVLNYFDYWGQGTLVTVSS
VL: DIQMTQSPSSVSASVGDRVTITCRASPDIANWLAWYQQKPGKAPELLIYAASSLQSGVPSRFSGSGSGTDFTLTISSLQPEDFATYFCQQANSFPLTFGGGTKVESK
notes: as for B1
B16: 75110_12K21A (antibody, V domains shown)
VH: B15 VH
VL: B15 VL
notes: as for B1
B17: 75110_13C13A (antibody, V domains shown)
VH: B15 VH with N75K, V92M, Y101F
VL: B15 VL with S7T, D28G, A30S
notes: as for B1
B18: 75110_01A06A (antibody, V domains shown)
VH: B8 VH with Q43K, H60Y, G88A, V89E, A105S
VL: B4 VL with T20S, L46I, N76S, T84A, I93S
notes: Tested as antibody purified from AlivaMab Mouse hybridoma supernatant (captured by anti-mouse IgG Fc)
B19: 75110_02N15A (antibody, V domains shown)
VH: B8 VH with Q43K, H60Y, L68F, Y80F, G88A, V89E, Y108H
VL: B4 VL with L46F, Y49S, N76S, T84A, I93S, I106F
notes: as for B18
B20: 75110_03D16A (antibody, V domains shown)
VH: B4 VH with D31S, S56G, S60Y, I93V, F94Y, A97V
VL: B4 VL with A34T, L46F, G50A, S67F, N76S, T84A, I93S
notes: as for B18
B21: 75110_04K10A (antibody, V domains shown)
VH: B4 VH with D31S, S60Y, M83L, I93M, F94Y, A105S
VL: B4 VL with L46V, A51V, L54F, T72I, N76S, T84A, I93S
notes: as for B18
B22: 75110_01D24A (antibody, V domains shown)
VH: B15 VH with S25Y, C59Y, N75E, S83N, V98L, L99V, Y101W, Y104P
VL: EIQMTQSPSSVSASVGDRVTITCRASQDISNWLAWYQQKPGKAPNLLIFAASSLQTGVPSRFSGSGSGTDFTLTISSLQPDDFATYYCQQANSFPYSFGQGTNLGIK
notes: as for B18

The first experiment deals with T1, Rhesus macaque CD4-HIS (Acro Biosystems, Cat. CD4-C52H7) (rhesus macaque, UniProt P16003 26-390).
T1 construct: Bought reagent; also called Rhesus CD4; rhesus CD4-HIS; not shown: His tag
As to the kind of experiment: BLI (Octet Red384); Ab on anti-mouse Fc (AMC) sensor; rhesus CD4-HIS 100/50/25 nM; global 1:1 fit.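 Further: antibodies loaded at 10 µg/mL, an unrelated mouse-derived antibody served as internal reference, curves fit over association and dissociation phases.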
Molecule B1 displayed a Kd of 11 nM, a Response of 0.22, an off-rate (koff) of 0.0026 s⁻¹ and a kon of 230000 M⁻¹ s⁻¹.
For B2 the same measures were 14 nM, 0.17, 0.0021 s⁻¹ and 150000 M⁻¹ s⁻¹.
The molecule B3 yielded a Kd of 19 nM, a Response of 0.15, a koff of 0.0041 s⁻¹ and a kon of 220000 M⁻¹ s⁻¹.
On to B4, for which the Kd came to 36 nM, the Response turned out to be 0.27, the koff was 0.003 s⁻¹ and the kon came to 84000 M⁻¹ s⁻¹.
Molecule B5 registered a Kd of 22 nM, a Response of 0.23, an off-rate constant (koff) of 0.0032 s⁻¹ and an on-rate constant (kon) of 150000 M⁻¹ s⁻¹.
With B6, the Kd amounted to 44 nM, the Response was 0.14, the koff was 0.004 s⁻¹ and the kon came to 92000 M⁻¹ s⁻¹.
As to B7, the Kd amounted to 32 nM, the Response was found to be 0.15, the koff stood at 0.003 s⁻¹ and the kon was determined as 94000 M⁻¹ s⁻¹.
Take B8: binding was characterised by a dissociation constant (Kd) of 14 nM, the Response is 0.28, the off-rate constant (koff) came to 0.0026 s⁻¹ and the on-rate (kon) was determined as 190000 M⁻¹ s⁻¹.
B9 gave a Kd of 16 nM, a Response of 0.1, a koff of 0.0038 s⁻¹ and an on-rate (kon) of 240000 M⁻¹ s⁻¹.
In the case of B10, the affinity, expressed as Kd, was 14 nM; the Response amounted to 0.13; the dissociation rate constant (koff) came to 0.0027 s⁻¹; the kon amounted to 190000 M⁻¹ s⁻¹.
Consider B11, for which the Kd was < 0.001 nM, the Response was found to be 0.03, the koff is < 1e-07 s⁻¹ and the on-rate constant (kon) is 13000 M⁻¹ s⁻¹.
The molecule B12 displayed a Kd of 18 nM, a Response of 0.14, a koff of 0.0028 s⁻¹ and a kon of 150000 M⁻¹ s⁻¹.
In the case of B13, the Kd was 5.1 nM, the Response stood at 0.15, the koff worked out at 0.00098 s⁻¹ and the on-rate (kon) stood at 190000 M⁻¹ s⁻¹.
Molecule B14 returned a Kd of 2.1 nM, a Response of 0.23, a koff of 0.00033 s⁻¹ and a kon of 160000 M⁻¹ s⁻¹.
B15 registered a Kd of 75 nM, a Response of 0.11, a koff of 0.013 s⁻¹ and a kon of 170000 M⁻¹ s⁻¹.
In turn, B16 came in with a Kd of 21 nM, a Response of 0.16, a koff of 0.0056 s⁻¹ and an on-rate constant (kon) of 270000 M⁻¹ s⁻¹.
Consider B17, for which the affinity, expressed as Kd, was 8.3 nM; the Response came to 0.09; the koff worked out at 0.0046 s⁻¹; the kon is 550000 M⁻¹ s⁻¹.

In a further experiment the target is T2, Rhesus macaque CD4-HIS (Acro Biosystems, Cat. CD4-C52H7) (rhesus macaque, UniProt P16003 26-390).
T2 construct: Bought reagent; also called Rhesus CD4; rhesus CD4-HIS; not shown: His tag
As to the kind of experiment: BLI Octet, mAb on anti-mouse Fc sensor, rhesus CD4-HIS 25-100 nM, 1:1 global fit.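 Further: purified antibodies captured at 10 µg/mL, rhesus CD4 analyte run as a three-concentration serial dilution, irrelevant antibody as reference control, one kinetic constant set per antibody from global fitting.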
In turn, B18 registered a Kd of 7.8 nM, a Response of 0.39, a koff of 0.001 s⁻¹ and a kon of 130000 M⁻¹ s⁻¹.
The like results for B19 were, in that order, 14 nM, 0.29, 0.0026 s⁻¹ and 190000 M⁻¹ s⁻¹.
The like results for B20 were, in that order, 12 nM, 0.1, 0.002 s⁻¹ and 160000 M⁻¹ s⁻¹.
Take B21: binding was characterised by a dissociation constant (Kd) of 48 nM, the Response amounted to 0.17, the koff amounted to 0.0032 s⁻¹ and the kon was 67000 M⁻¹ s⁻¹.
On to B22, for which the affinity, expressed as Kd, was 340 nM; the Response came out at 0.08; the koff was found to be 0.064 s⁻¹; the kon was 190000 M⁻¹ s⁻¹.

By Kd is commonly meant the concentration at which binding is half-saturated. A higher Kd goes with a looser complex. By koff is commonly meant the rate constant with which the complex falls apart. Read a high koff as a short-lived complex. A word on the kon: it is the rate constant with which the complex forms.
